This assay has as its target T1, SARS-COV-2 RBD (SARS-COV-2, UniProt P0DTC2 319-539).
T1 construct: also called WT RBD
As to the kind of experiment: ELISA, RBD coated on plate.

Here are results for 23 molecules from patent publication US20240218057A1 (ROCKEFELLER UNIVERSITY, published 2024).

A word on the EC50: it is the concentration at which the effect is half-maximal. A higher EC50 goes with weaker potency.

B1: C1024 (antibody, V domains shown)
VH: QVQLVESGGGVVQPGRSLRLSCAASGFTFSDYAMHWVRQAPGKGLEWVAMISYDGNSQYYADSVKGRFTISRDNSKNTLYLQMNILRPEDTAVYYCARTFSIRIGHHDYWGQGTLVTVSS
VL: NFMLTQPHSVSESPGKTVTISCTGSSGSIASNYVHWYQQRPGSAPTTVIFEDNQRPSGVPDRFSGSIDSSSNSASLTISGLKTEDEADYYCQSYDSSSFWVFGGGTKLTVL
For the molecule B1, the 50% effective concentration (EC50) came to 2.37 ng/mL.

B2: C904 (antibody, V domains shown)
VH: QVQLQQWGAGLLKPSETLSLTCAVNGGSLSLYYWSWIRQSPGKGLEWIGEINHFGGSDYKPSLKSRVSISVDTSTNQFSLKLSSVTAADTAVYYCARKPLLHSNISPGAFDIWGQGTMVTVSS
VL: EIVLTQSPGTLSLSPGERATLSCRASQSVAGSYLAWYQQKPGQAPRLLIYGASSRATGVPDRISGSGSGTDFTLTISRLEPEDFAVYYCQQYTNTPRTFGGGTKVEI
As to B2, the half-maximal effective concentration (EC50) came out at 3.31 ng/mL.

B3: C903 (antibody, V domains shown)
VH: EVQLVESGGGLIQPGGSLRLSCAASGFIVSRNYMSWVRQAPGKGLEWVSIIYSGGSTFYADSVKGRFTISRDNSKNTVYLQMNSLRAEDTAVYYCARDYGDFYFDYWGQGTLVTVSS
VL: EIVLTQSPGTLSLSPGERATLSCRASQSVSSSYLAWYQQKPGQAPRLLIFDVSSRATGIPDRFSGSGSGTDFTLTISRLEPEDFAVYYCQQYGSSPRTFGQGTKVEIK
In the case of B3, the response was half-maximal at 2.54 ng/mL (EC50).

B4: C913 (antibody, V domains shown)
VH: EVQLVESGGVVVQPGGSLRLSCAASGFTFDDYSMHWVRQVPGKGLEWIAVIFWDGTSTYYADSVKGRFTISRDNSKKSLYLQMNSLRSEDTALYYCAKDSEDCSSTSCYVDHWGQGTLVTVSS
VL: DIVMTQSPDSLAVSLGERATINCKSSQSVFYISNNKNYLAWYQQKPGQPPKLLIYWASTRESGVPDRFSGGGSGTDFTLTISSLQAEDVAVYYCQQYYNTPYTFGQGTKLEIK
Molecule B4 returned an EC50 of 2.58 ng/mL.

B5: C1023 (antibody, V domains shown)
VH: QVQLVQSGAEMKKPGASVKISCKASGDTFTTNYFHWVRQAPGQGLEWMGIINPSAGSTTYAQRFQGRVTMTGDSSTNTVYLELRSLRSEDTAMYFCAKGSYIPAMRSSFDPWGQGTLVTVSS
VL: EIVLTQSPGTLSLSPGERATLSCRASQSVSHRYLAWYQQKPGQAPRLLIDGASNRATGIPDRFSGSGSGTDFTLTISRLEPEDFGVYYCQQYGSSPPFTFGQGTKLEIK
On to B5, for which the concentration for a half-maximal effect (EC50) turned out to be 1.13 ng/mL.

B6: C905 (antibody, V domains shown)
VH: QVQLQESGPGLVTPSQTLSLTCSVSGGSIHSRDFYWGWIRQHPGKGLEWIGHIYYTGNTYYNPSLKSRVTISADTSKNQFSLKLSSVTAADTAVYYCARATVVITLHWFDPWGQGTLVTVSS
VL: NFMLTQPHSVSESPGKTVTISCTGSGGSIASNYVQWYQQRPGSAPTTVIYEDNERPSGVPDRFSGSIDSSSNSASLTISGVKTEDEADYFCQSYDVGNPVIFGGGTKLTVL
Consider B6, for which the EC50 came out at 3.06 ng/mL.

B7: C920 (antibody, V domains shown)
VH: QLQLQESGPGLVKPSETLSLTCAVSGGSISNSPFYWGWIRQPPGKGLECIGSIYYSGSTYYNPSLKSRVTISVDTSKKQFSLKLSSVTAADTAVYYCARHFADGSGRVVDSWGQGILVTVSS
VL: EIVLTQSPATLSLSPGERATLSCRASQSVSSYLAWYQQKPGQAPSLLIYDVSNRATGIPARFSGSGSGTDFTLTISSLEPEDFAVYYCQQRINWPLYTFGQGTKLEIK
For B7, the midpoint of the response, the EC50, lay at 2.35 ng/mL.

B8: C921 (antibody, V domains shown)
VH: QLQLQESGPGLVKPSETLSLTCAVSGGSISNSPFYWAWIRQPPGKGLECIGSIYYTGSTYYNPSLKSRVTISVDTSTKQFSLKLRSVTAADTAVYYCARHFADGSGRVVDYWGQGTLVTVSS
VL: EIVLTQSPATLSLSPGERATLSCRASQSVTTYLAWYQQKPGQAPRLLIYDVSSRATGIPARFSGSGSGTDFTLTISSLEPEDFAVYYCQQRSNWPLYTFGQGTKLEIK
In turn, B8 returned a concentration giving a half-maximal response (EC50) of 3.91 ng/mL.

B9: C908 (antibody, V domains shown)
VH: EVQLVQSGAEVKKPGESLKISCKASGYSFTIYWIGWVRQMPGKGLEWMGIIYPGESETRYSPSFQGQVTISADKSISTAYLQWRSLKASDTAMYYCARGGPPGGVKLELTDYWGQGTLVTVSS
VL: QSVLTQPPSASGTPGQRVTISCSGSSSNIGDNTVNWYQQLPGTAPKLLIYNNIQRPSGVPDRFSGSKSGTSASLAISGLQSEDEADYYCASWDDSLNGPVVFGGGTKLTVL
Molecule B9 displayed an EC50 of 1.27 ng/mL.

B10: C912 (antibody, V domains shown)
VH: QVQLVESGGGVVQPGRSLRLSCAASGFSFSTYTMHWVRQTPDKGLEWVAVISDDGKNKYYADSMKGRFTISRDNSKNTLYLQMSSLRPEDTAVYYCARDLENVMIEVALESWGQGTLVTVSS
VL: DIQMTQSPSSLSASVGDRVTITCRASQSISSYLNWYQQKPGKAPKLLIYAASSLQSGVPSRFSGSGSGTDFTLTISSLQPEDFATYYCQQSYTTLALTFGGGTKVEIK
Consider B10, for which the midpoint of the response, the EC50, lay at 2.45 ng/mL.

B11: C914 (antibody, V domains shown)
VH: QVQLQESGPGLVKPSQTLSLTCTVSGGSITSGDYYWTWIRQPPGKGLEWIGYIYYSGNTYYNLSLRSRITISEDTSKNQFSLKLRSVTAADTAVYYCARAMITFGGVIVVLDYWGQGTLVTVSS
VL: QSALTQPPSASGSPGQSVTISCTGTSTDVGGYNFVSWYQQHPGKAPKLMIYEVSKRPSGVPDRFSGSKSGNTASLTVSGLQAEDEADYYCSSYAGSNILYVFGTGTKVTVL
As to B11, the EC50 is 1.59 ng/mL.

B12: C915 (antibody, V domains shown)
VH: QVQLQESGPGLVKPSQTLSLTCTVSGGSISSGDYYWSWIRQPPGKGLEWIGYIYYSDSTYYNPSLRTRVTISVDTSKNQFSLKLTSVTAADTAVYYCARAMITFGGVIVLYDYWGQGTLVTVSS
VL: QSALTQPPSASGSPGQSVTISCTGTSSDVGGYNYVSWYQQHPGKAPKLMIYEVTKRPSGVPARFSGSKSGNTASLTVSGLQAEDEADYYCSSYAGSILLYVFGTGTKVTVL
Turning to B12, the EC50 came to 3.49 ng/mL.

B13: C911 (antibody, V domains shown)
VH: QVQLVESGGGVVQPGGSLRLSCAASAFTFSSYAMHWIRQSPGKGLEWVAVISSDGSSKFYADSVKGRFTISRDNSKNTLYLQMNSLSAEDTAVYYCARDLENVLIEVALQDWGQGTLVTVSS
VL: DIQMTQSPSSLSASVGDRVTITCRASQSINSYLNWYQQKPGKAPKLLIYAASSLHSGVPSRFSGSGSGTDFTLTISSLQPEDFATYYCQQSYTTLALTFGGGTKVEIK
Turning to B13, the EC50 worked out at 2.36 ng/mL.

B14: C909 (antibody, V domains shown)
VH: QVQLVQSGAEVKKPGASVKVSCRASGYTFPNYDLNWVRQATGQGLEWMGWMNPNSGNTGYAQKFQGRITMTRITSISTAYMELSSLRSEDTAVYYCARGRANWNSNFLLDSWGQGTLVTVSS
VL: QSALTQPASVSGSPGQSITISCTGTSSDVGGYNLVSWYQQYPGNVPKLMIYEDAKRPSGVSNRFSGSKSANTASLTISGLQAEDEADYYCCSYAGSSTRYVFGTGTKVTVL
For B14, the concentration giving a half-maximal response (EC50) worked out at 3.24 ng/mL. This EC50 and that of the molecule before are within 1.5-fold of each other.

B15: C918 (antibody, V domains shown)
VH: QVQLVESGGGLVKPGGSLRLSCTASGFTFSDYYMTWLRQAPGKGLEWVSYISSTSPYTSYADSVKGRFTISRDNARNSVYLQMNSLRAEDTAIYYCARVPPPQRLHPFDVWGQGTMVTVSS
VL: DIQMTQSPSTLSASVGDRVTITCRASQSISSWLAWYQQKPGKAPKLLIYQASSLESGVPSRFSGSGSGTDFTLTISSLQPDDFATYYCQQYFRYSWTFGQGTKVEI
As for B15, a half-maximal response (EC50) required 1.78 ng/mL.

B16: C1022 (antibody, V domains shown)
VH: QVQLVQSGAEVKTPGASVKVSCQASGDTFTSQYLHWVRQAPGQGLEWMGIINPTAGSTTYAQKFQGRVTMTRDTSTSTVYMELRSLRSEDMAVYYCARGGFIPMVRGFIDHWGQGTLVTVSS
VL: QSALTQPASVSGSPGQSITISCTGTSSDVGGYNYVSWYQQHPGKAPKLMIYDVSNRPSGVSTRFSGSKSGNTASLTISGLQAEDEADYYCSSPTSSNTHVFGTGTKVTVL
The molecule B16 registered a concentration giving a half-maximal response (EC50) of 1.66 ng/mL. The EC50 values of the last two molecules are within 1.5-fold of each other.

B17: C907 (antibody, V domains shown)
VH: QVQLQESGPGLVKPSETLSLTCTVSGGSITSYYWTWIRQSPGKGLEWIGYIYYIGSTNYNPSLKSRLTISLATSKNQFSLRLNSVTAADTAVYYCASYYNDTSGYSYGLDVWGQGTTVTVSS
VL: DIQMTQSPSSLSAFVGDRVTITCRAGQSISSYLHWYQQKPGKAPKLLIYATSTLQSGVPSRFSGRGSGTDFTLTISGLQPEDFATYYCQQSYSTPQTFGQGTKVEIK
For the molecule B17, a half-maximal response (EC50) required 3.71 ng/mL.

B18: C916 (antibody, V domains shown)
VH: EVQLVESGGGLVQPGGSLRLSCAASGFTFSNYDMHWVRQATGRGLEWVSTIGTAGDTYYPGSVKGRFTISRENAKNSLYLQMNSLRAGDTALYYCARVRYDSSGYFWSLDYWGQGTLVTVSS
VL: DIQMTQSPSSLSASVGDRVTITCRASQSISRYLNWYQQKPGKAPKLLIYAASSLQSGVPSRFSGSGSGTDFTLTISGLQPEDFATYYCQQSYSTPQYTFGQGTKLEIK
In turn, B18 gave a half-maximal effective concentration (EC50) of 1.97 ng/mL.

B19: C917 (antibody, V domains shown)
VH: EVQLVESGGGLVQPGGSLRLSCAASGFTFSNYDMHWVRQATGKGLDWVSTIGTAGDTYYPGSVKGRFTISRENAKNSLYLQMNSLRAGDTAVYYCARVRFDTSGYFWSLDYWGQGTLVTVSS
VL: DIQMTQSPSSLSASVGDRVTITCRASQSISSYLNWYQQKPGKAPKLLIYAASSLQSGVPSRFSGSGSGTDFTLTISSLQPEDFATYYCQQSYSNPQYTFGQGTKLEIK
The molecule B19 gave an EC50 of 1.05 ng/mL.

B20: C906 (antibody, V domains shown)
VH: EVQLVESGGGLIKPGRSLRLSCTASGFTFGDYAMTWFRQAPGKGLEWVGFIRSKAYGGTTGYAASVKYRFTISRDDSKSIVYLQMDSLKTEDTAVYYCTRWDGWSQHDYWGQGTLVTVSS
VL: DIVMTQSPLSLSVTPGEPASISCRSSQSLLHSNGINYFDWYLQKPGQSPQLLIYLGSNRASGVPDRFSGSGSGTDFTLKISRVEAEDVGVYYCMQVLQIPYTFGQGTKLEI
B20 returned an EC50 of 1.07 ng/mL.

B21: C910 (antibody, V domains shown)
VH: QVQLVQSGAAVKKPGASVKVSCKASGYTFTSYDINWVRQAPGQGLEWMGWMNPNSGNTGFAQRFQGRATLSRDTSITTAYMELTTLRSEDTAVYYCARGRANYNSKFLLDNWGQGTLVTVSS
VL: QSALTQPASVSGSPGQSITISCTGTSSDVGSYNLVSWYQQHPGTAPKLMIYEGSKRPSGVSDRFSGYKSGNTASLTISGLQADDEADYYCCSFAGSTTRYVFGTGTRVTVL
Regarding B21, the EC50 was 2.47 ng/mL. This EC50 lies about 2.3-fold higher than the previous one.

B22: C1021 (antibody, V domains shown)
VH: QVQLVQSGAELKKPGASVKVSCKASGYTFSTYYIHWVRQAPGQGLEWMGIINPEAGSTSYAQKFQGRVTMTTDTSTSTVYMELISLRSQDTAIYYCARDAVGVPAINSLEYWGQGTLVTVSS
VL: EIVLTQSPATLSLSPGERATLSCRASQSISSYLAWYQQKPGQAPRLLIYDASNRATDISARFSGSGSGTDFTLTISSLEPEDFAVYYCQHRSNWPPSFTFGGGTKVEIK
Molecule B22 had an EC50 of 2.53 ng/mL.

B23: C922 (antibody, V domains shown)
VH: QVQLVESGGGLVKPGGSLRLSCAGSGFTFTDYYMAWIRQAPGKGLEWVSYISTSDRFINYADSVKGRFTISRDDAKNSLYLQMNSLRAEDTAVYYCARDGGGYDRFDHWGQGTLVTVSS
VL: DIQMTQSPSSLSASVGDRVTITCQASQDISNLLNWYQQKAGKAPKLLIYDASNLETGVPSRFSGSGSGTDFTFTISSLQPEDIATYYCLQYDNLPLTFGQGTKLEIK
Consider B23, for which the EC50 worked out at 2.42 ng/mL. This EC50 and that of the molecule before are within 1.5-fold of each other.
